Tests used:
cpSRP43 (mature) = cpSRP43 (mature) (UniProt O22265); assay: fluorescence polarisation
[1] = target: LHCP (light-harvesting chlorophyll a/b binding protein), fluorescein-labeled (UniProt P07371); assay: fluorescence polarisation

Ki (cpSRP43 (mature)) [nM] | Kd [1] [nM] | Substance
2200 |  | L18 peptide
 | 530 | cpSRP43 ΔCD2 (domain or fragment)
 | 886 | cpSRP43 ΔCD3 (domain or fragment)
